We go through two molecules from PMC10127577 (2023).

The assay addresses T1, CDTb protoxin (proCDTb), CDTb residues 43 to 876 (Clostridioides difficile, UniProt O32739 43-876).
T1 chain: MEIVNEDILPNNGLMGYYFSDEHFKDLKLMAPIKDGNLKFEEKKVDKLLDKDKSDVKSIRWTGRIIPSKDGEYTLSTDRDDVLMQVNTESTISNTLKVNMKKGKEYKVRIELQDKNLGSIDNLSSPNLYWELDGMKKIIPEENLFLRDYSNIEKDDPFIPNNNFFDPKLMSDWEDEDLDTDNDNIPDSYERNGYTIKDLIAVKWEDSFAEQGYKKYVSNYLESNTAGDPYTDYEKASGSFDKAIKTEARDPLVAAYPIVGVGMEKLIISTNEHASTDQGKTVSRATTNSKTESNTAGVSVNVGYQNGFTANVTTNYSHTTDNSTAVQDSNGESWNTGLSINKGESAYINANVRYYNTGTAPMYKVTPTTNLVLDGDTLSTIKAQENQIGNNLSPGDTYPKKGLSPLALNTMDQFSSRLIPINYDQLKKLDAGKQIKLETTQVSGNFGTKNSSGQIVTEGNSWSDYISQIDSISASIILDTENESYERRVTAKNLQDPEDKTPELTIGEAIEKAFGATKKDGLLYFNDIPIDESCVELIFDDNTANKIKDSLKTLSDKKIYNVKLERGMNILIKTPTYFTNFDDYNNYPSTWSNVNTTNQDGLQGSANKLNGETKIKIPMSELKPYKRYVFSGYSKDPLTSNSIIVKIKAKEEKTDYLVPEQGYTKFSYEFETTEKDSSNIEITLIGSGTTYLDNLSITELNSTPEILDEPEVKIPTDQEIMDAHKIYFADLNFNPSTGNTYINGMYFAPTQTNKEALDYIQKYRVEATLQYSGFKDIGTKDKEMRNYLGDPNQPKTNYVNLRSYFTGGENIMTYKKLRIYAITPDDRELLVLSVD
Nature of the assay: SPR. For orientation: SPR reads the build-up and loss of mass on a sensor chip optically.

Broadly, the koff is the rate constant with which the complex falls apart. A lower koff goes with slow dissociation.

B1: BINTOXB/9 Fab (Fab, V domains shown)
VH: QVQLQQSGAELARPGASVKMSCKASGYTFTSYTMHWVKQRPGQGLEWIGYINPSNDYTSYNQKFKDKATLTADKSSSTAYMQLSSLTSEDSAVYYCARCWGYDPYYFDYWGQGTTLTVSS
VL: DIVMSQSPSLLAVSAGEKVTMSCKSSQSLLNSRTRKNYLAWYQQKPGQSPKVLIYWASTRESGVPDRFTGSGSGTDFTLTISSVQAEDLAVYYCKQSYNLLTFGAGTKLELK
The molecule B1 registered a koff of 0.000227 s⁻¹.

B2: BINTOXB/22 Fab (Fab, V domains shown)
VH: QIQLVQSGPELKKPGETVKISCKASGYTFTNYGMNWVKQAPGKDLKWMGWMSTYTGEPTYADDFKGRFAFSLETSASTAYLQINNLKNEDMATYFCARRGNYLSFDYWGQGTTLTVSS
VL: DIVMTQSHKFMSTSVGDRVSITCKASQDVSTAVGWYQQKPGQSPKLLIYSASYRYTGVPDRFTGSGSGTDFTFTISSVQAEDLAVYYCQQHYSPPFTFGSGTELEIK
B2 returned a koff of 0.00299 s⁻¹.
